In patent US12097241B2, “Methods of treating kidney failure, and/or improving or stablizing renal function using modified relaxin polypeptides” (BRISTOL-MYERS SQUIBB COMPANY, priority 2017, dated 2024):
Read-outs that look alike come from different tables or passages of the source.

Assay: In vivo pharmacokinetic (PK) studies in rats
Set-up: species or system Sprague-Dawley rats
Details: for AUC(0-inf): read-out: Rat PK AUC Total; for level at time molar at 24 h: read-out: Rat PK C24
Experimental: […] Blood samples were collected via jugular vein at different time points out to 72 hours. Blood samples were allowed to coagulate at room temperature (30-60 m) and then centrifuged (1500-2000) at 4° C. to obtain serum. After centrifugation serum samples were transferred to 96 well plates and stored at −80° C. until bioanalysis. Relaxin concentrations were measured from serum by ELISA.
Relaxin concentration-time profiles from individual animals were used for analysis. Pharmacokinetic parameters were calculated by non-compartmental methods using Phoenix WinNonlin (version 6.4) or Kinetica (version 5). Mean pharmacokinetic parameters Cmax, AUCinf, C24 and half-life were reported (Table 4). Table 4. In vivo PK data (abbreviations as in Table 3).

[1] = rat, male Sprague-Dawley rats, single SC dose 1.0 mg/kg, serum ELISA
[2] = rats, SC dose 1.0 mg/kg, adjusted from 0.3 mpk

| SMILES | AUC(0-inf) [1] | level at time molar at 24 h [1] | Rat PK AUC Total [2] | level at time molar at 24 h [2] |
| --- | --- | --- | --- | --- |
| CC[C@H](C)[C@@H]1NC(=O)[C@H](C)NC(=O)[C@H]([C@@H](C)CC)NC(=O)[C@H](CCC(N)=O)NC(=O)[C@H](C)NC(=O)[C@H](CCCNC(=N)N)NC(=O)[C@H](C(C)C)NC(=O)[C@H](CC(C)C)NC(=O)[C@H](CCC(=O)O)NC(=O)[C@H](CCCNC(=N)N)NC(=O)CNC(=O)[C@@H](NC(=O)[C@H](CC(C)C)NC(=O)[C@H](CCCCN)NC(=O)[C@@H](NC(=O)[C@@H](NC(=O)[C@H](CCC(=O)O)NC(=O)[C@H](CCC(=O)O)NC(=O)[C@H](CCSC)NC(=O)[C@H](Cc2c[nH]c3ccccc23)NC(=O)[C@H](CO)NC(=O)[C@H](C)N)C(C)C)[C@@H](C)CC)CSSC[C@@H]2NC(=O)[C@@H](NC(=O)[C@H](CCCCN)NC(=O)[C@H](CC(N)=O)NC(=O)[C@H](C)NC(=O)[C@H](CC(C)C)NC(=O)[C@H](C)NC(=O)[C@H](CO)NC(=O)[C@H](Cc3ccc(O)cc3)NC(=O)[C@H](CC(C)C)NC(=O)[C@@H](N)Cc3ccc(C(C)=NOCCNC(=O)CNC(=O)CNC(=O)CNC(=O)[C@H](CCC(=O)O)NC(=O)[C@H](CCC(=O)O)NC(=O)[C@H](CCC(=O)O)NC(=O)CC[C@H](NC(=O)CCCCCCCCCCCCC(=O)O)C(=O)O)cc3)CSSC[C@H](NC(=O)CNC(=O)[C@H](C(C)C)NC(=O)[C@H](Cc3c[nH]cn3)NC2=O)C(=O)N[C@@H]([C@@H](C)O)C(=O)N[C@@H](CCCCN)C(=O)N[C@@H](CCCNC(=N)N)C(=O)N[C@@H](CO)C(=O)N[C@@H](CC(C)C)C(=O)N[C@@H](C)C(=O)N[C@@H](CCCNC(=N)N)C(=O)N[C@@H](Cc2ccccc2)C(=O)N[C@H](C(=O)O)CSSC[C@@H](C(=O)NCC(=O)N[C@@H](CCSC)C(=O)N[C@@H](CO)C(=O)N[C@H](C(=O)N[C@@H](Cc2c[nH]c3ccccc23)C(=O)N[C@@H](CO)C(=O)O)[C@@H](C)O)NC1=O [AQ1-GGGEEE-Glu^γ-C13-COOH] | 0.866 µM·h | 0.18 nM |  |  |
| CC[C@H](C)[C@@H]1NC(=O)[C@H](C)NC(=O)[C@H]([C@@H](C)CC)NC(=O)[C@H](CCC(N)=O)NC(=O)[C@H](C)NC(=O)[C@H](CCCNC(=N)N)NC(=O)[C@H](C(C)C)NC(=O)[C@H](CC(C)C)NC(=O)[C@H](CCC(=O)O)NC(=O)[C@H](CCCNC(=N)N)NC(=O)CNC(=O)[C@@H](NC(=O)[C@H](CC(C)C)NC(=O)[C@H](CCCCN)NC(=O)[C@@H](NC(=O)[C@@H](NC(=O)[C@H](CCC(=O)O)NC(=O)[C@H](CCC(=O)O)NC(=O)[C@H](CCSC)NC(=O)[C@H](Cc2c[nH]c3ccccc23)NC(=O)[C@H](CO)NC(=O)[C@H](C)N)C(C)C)[C@@H](C)CC)CSSC[C@@H]2NC(=O)[C@@H](NC(=O)[C@H](CCCCN)NC(=O)[C@H](CC(N)=O)NC(=O)[C@H](C)NC(=O)[C@H](CC(C)C)NC(=O)[C@H](C)NC(=O)[C@H](CO)NC(=O)[C@H](Cc3ccc(O)cc3)NC(=O)[C@H](CC(C)C)NC(=O)[C@@H](N)Cc3ccc(C(C)=NOCCNC(=O)CNC(=O)CNC(=O)CNC(=O)CNC(=O)[C@H](CO)NC(=O)CC[C@H](NC(=O)CCCCCCCCCCCCCCC(=O)O)C(=O)O)cc3)CSSC[C@H](NC(=O)CNC(=O)[C@H](C(C)C)NC(=O)[C@H](Cc3c[nH]cn3)NC2=O)C(=O)N[C@@H]([C@@H](C)O)C(=O)N[C@@H](CCCCN)C(=O)N[C@@H](CCCNC(=N)N)C(=O)N[C@@H](CO)C(=O)N[C@@H](CC(C)C)C(=O)N[C@@H](C)C(=O)N[C@@H](CCCNC(=N)N)C(=O)N[C@@H](Cc2ccccc2)C(=O)N[C@H](C(=O)O)CSSC[C@@H](C(=O)NCC(=O)N[C@@H](CCSC)C(=O)N[C@@H](CO)C(=O)N[C@H](C(=O)N[C@@H](Cc2c[nH]c3ccccc23)C(=O)N[C@@H](CO)C(=O)O)[C@@H](C)O)NC1=O [AQ1-GGGGS-Glu^γ-C15-COOH] |  |  | 5.526 µM·h | 44 nM |
| CC[C@H](C)[C@@H]1NC(=O)[C@H](C)NC(=O)[C@H]([C@@H](C)CC)NC(=O)[C@H](CCC(N)=O)NC(=O)[C@H](C)NC(=O)[C@H](CCCNC(=N)N)NC(=O)[C@H](C(C)C)NC(=O)[C@H](CC(C)C)NC(=O)[C@H](CCC(=O)O)NC(=O)[C@H](CCCNC(=N)N)NC(=O)CNC(=O)[C@@H](NC(=O)[C@H](CC(C)C)NC(=O)[C@H](CCCCN)NC(=O)[C@@H](NC(=O)[C@@H](NC(=O)[C@H](CCC(=O)O)NC(=O)[C@H](CCC(=O)O)NC(=O)[C@H](CCSC)NC(=O)[C@H](Cc2c[nH]c3ccccc23)NC(=O)[C@H](CO)NC(=O)[C@H](C)N)C(C)C)[C@@H](C)CC)CSSC[C@@H]2NC(=O)[C@@H](NC(=O)[C@H](CCCCN)NC(=O)[C@H](CC(N)=O)NC(=O)[C@H](C)NC(=O)[C@H](CC(C)C)NC(=O)[C@H](C)NC(=O)[C@H](CO)NC(=O)[C@H](Cc3ccc(O)cc3)NC(=O)[C@H](CC(C)C)NC(=O)[C@@H](N)Cc3ccc(C(C)=NOCCNC(=O)CNC(=O)CNC(=O)CNC(=O)[C@H](CCCCN)NC(=O)[C@H](CCCCN)NC(=O)[C@H](CCCCN)NC(=O)CC[C@H](NC(=O)CCCCCCCCCCCCC(=O)O)C(=O)O)cc3)CSSC[C@H](NC(=O)CNC(=O)[C@H](C(C)C)NC(=O)[C@H](Cc3c[nH]cn3)NC2=O)C(=O)N[C@@H]([C@@H](C)O)C(=O)N[C@@H](CCCCN)C(=O)N[C@@H](CCCNC(=N)N)C(=O)N[C@@H](CO)C(=O)N[C@@H](CC(C)C)C(=O)N[C@@H](C)C(=O)N[C@@H](CCCNC(=N)N)C(=O)N[C@@H](Cc2ccccc2)C(=O)N[C@H](C(=O)O)CSSC[C@@H](C(=O)NCC(=O)N[C@@H](CCSC)C(=O)N[C@@H](CO)C(=O)N[C@H](C(=O)N[C@@H](Cc2c[nH]c3ccccc23)C(=O)N[C@@H](CO)C(=O)O)[C@@H](C)O)NC1=O [AQ1-GGGKKK-Glu^γ-C13-COOH] | 0.231 µM·h | 0.1 nM |  |  |
| CC[C@H](C)[C@@H]1NC(=O)[C@H](C)NC(=O)[C@H]([C@@H](C)CC)NC(=O)[C@H](CCC(N)=O)NC(=O)[C@H](C)NC(=O)[C@H](CCCNC(=N)N)NC(=O)[C@H](C(C)C)NC(=O)[C@H](CC(C)C)NC(=O)[C@H](CCC(=O)O)NC(=O)[C@H](CCCNC(=N)N)NC(=O)CNC(=O)[C@@H](NC(=O)[C@H](CC(C)C)NC(=O)[C@H](CCCCN)NC(=O)[C@@H](NC(=O)[C@@H](NC(=O)[C@H](CCC(=O)O)NC(=O)[C@H](CCC(=O)O)NC(=O)[C@H](CCSC)NC(=O)[C@H](Cc2c[nH]c3ccccc23)NC(=O)[C@H](CO)NC(=O)[C@H](C)N)C(C)C)[C@@H](C)CC)CSSC[C@@H]2NC(=O)[C@@H](NC(=O)[C@H](CCCCN)NC(=O)[C@H](CC(N)=O)NC(=O)[C@H](C)NC(=O)[C@H](CC(C)C)NC(=O)[C@H](C)NC(=O)[C@H](CO)NC(=O)[C@H](Cc3ccc(O)cc3)NC(=O)[C@H](CC(C)C)NC(=O)[C@@H](N)Cc3ccc(C(C)=NOCCNC(=O)[C@H](CCCCN)NC(=O)[C@H](CCCCN)NC(=O)CC[C@H](NC(=O)CCCCCCCCCCCCCCC(=O)O)C(=O)O)cc3)CSSC[C@H](NC(=O)CNC(=O)[C@H](C(C)C)NC(=O)[C@H](Cc3c[nH]cn3)NC2=O)C(=O)N[C@@H]([C@@H](C)O)C(=O)N[C@@H](CCCCN)C(=O)N[C@@H](CCCNC(=N)N)C(=O)N[C@@H](CO)C(=O)N[C@@H](CC(C)C)C(=O)N[C@@H](C)C(=O)N[C@@H](CCCNC(=N)N)C(=O)N[C@@H](Cc2ccccc2)C(=O)N[C@H](C(=O)O)CSSC[C@@H](C(=O)NCC(=O)N[C@@H](CCSC)C(=O)N[C@@H](CO)C(=O)N[C@H](C(=O)N[C@@H](Cc2c[nH]c3ccccc23)C(=O)N[C@@H](CO)C(=O)O)[C@@H](C)O)NC1=O [AQ1-KK-Glu^γ-C15-COOH] | 0.82 µM·h | 8.8 nM |  |  |
| CC[C@H](C)[C@@H]1NC(=O)[C@H](C)NC(=O)[C@H]([C@@H](C)CC)NC(=O)[C@H](CCC(N)=O)NC(=O)[C@H](C)NC(=O)[C@H](CCCNC(=N)N)NC(=O)[C@H](C(C)C)NC(=O)[C@H](CC(C)C)NC(=O)[C@H](CCC(=O)O)NC(=O)[C@H](CCCNC(=N)N)NC(=O)CNC(=O)[C@@H](NC(=O)[C@H](CC(C)C)NC(=O)[C@H](CCCCN)NC(=O)[C@@H](NC(=O)[C@@H](NC(=O)[C@H](CCC(=O)O)NC(=O)[C@H](CCC(=O)O)NC(=O)[C@H](CCSC)NC(=O)[C@H](Cc2c[nH]c3ccccc23)NC(=O)[C@H](CO)NC(=O)[C@H](C)N)C(C)C)[C@@H](C)CC)CSSC[C@@H]2NC(=O)[C@@H](NC(=O)[C@H](CCCCN)NC(=O)[C@H](CC(N)=O)NC(=O)[C@H](C)NC(=O)[C@H](CC(C)C)NC(=O)[C@H](C)NC(=O)[C@H](CO)NC(=O)[C@H](Cc3ccc(O)cc3)NC(=O)[C@H](CC(C)C)NC(=O)[C@@H](N)Cc3ccc(C(C)=NOCCNC(=O)[C@H](CCCCN)NC(=O)[C@H](CCCCN)NC(=O)[C@H](CCCCN)NC(=O)[C@H](CCCCN)NC(=O)[C@H](CCCCN)NC(=O)[C@H](CCCCN)NC(=O)CC[C@H](NC(=O)CCCCCCCCCCCCC(=O)O)C(=O)O)cc3)CSSC[C@H](NC(=O)CNC(=O)[C@H](C(C)C)NC(=O)[C@H](Cc3c[nH]cn3)NC2=O)C(=O)N[C@@H]([C@@H](C)O)C(=O)N[C@@H](CCCCN)C(=O)N[C@@H](CCCNC(=N)N)C(=O)N[C@@H](CO)C(=O)N[C@@H](CC(C)C)C(=O)N[C@@H](C)C(=O)N[C@@H](CCCNC(=N)N)C(=O)N[C@@H](Cc2ccccc2)C(=O)N[C@H](C(=O)O)CSSC[C@@H](C(=O)NCC(=O)N[C@@H](CCSC)C(=O)N[C@@H](CO)C(=O)N[C@H](C(=O)N[C@@H](Cc2c[nH]c3ccccc23)C(=O)N[C@@H](CO)C(=O)O)[C@@H](C)O)NC1=O [AQ1-KKKKKK-Glu^γ-C13-COOH] | 0.038 µM·h | 0.05 nM |  |  |
